This is an account of results in publication PMC10849588.

This assay addresses GMPCPP-stabilized, fluorescently labeled, biotinylated microtubules (untreated) (UniProt P02550).

Take “wild-type full-length Cin8, GFP- and 6x His-tagged (from UniProt P27895 1-1000) (natural protein)”: the % of (+)-end movements, Clusters, 110 mM KCl was determined as 41%; the % of (+)-end movements, Monomers (single molecules), 110 mM KCl came out at 29%; the % of total runs >60 s, Monomers (single molecules), 110 mM KCl stood at 17%.
